These results are taken from patent US20180066066A1 (University of Texas, published 2018).

The target of assay [1] is human HER3 receptor on cells (human, UniProt P21860 20-1342). The assay is described as follows: cell-based or functional assay.
For assay [2], the target named is T1, human HER3/ErbB3 extracellular domain (human, UniProt P21860 20-643).
T1 construct: extracellular domain; the range 1-643 of M34309 is printed only for the immunogen; also called Human HER3 ECD; recombinant human HER3
As to the kind of experiment: ELISA on human HER3 ECD. For orientation: ELISA stands for enzyme-linked immunosorbent assay.

The target of the next assay is T2, Mouse HER3 ECD (mouse, UniProt Q61526 20-641).
T2 construct: extracellular domain; also called mouse HER3 ECD domains
As to the kind of experiment: ELISA on mouse HER3 ECD; column uncertain.

For assay [3], the target named is T1, human HER3/ErbB3 extracellular domain. The assay is described as follows: SPR, Biacore T-100, HER3 ECD. For orientation: In SPR one partner is held on a chip, and binding of the other changes the refractive index at the surface.

T1 sequence (P21860 20-643): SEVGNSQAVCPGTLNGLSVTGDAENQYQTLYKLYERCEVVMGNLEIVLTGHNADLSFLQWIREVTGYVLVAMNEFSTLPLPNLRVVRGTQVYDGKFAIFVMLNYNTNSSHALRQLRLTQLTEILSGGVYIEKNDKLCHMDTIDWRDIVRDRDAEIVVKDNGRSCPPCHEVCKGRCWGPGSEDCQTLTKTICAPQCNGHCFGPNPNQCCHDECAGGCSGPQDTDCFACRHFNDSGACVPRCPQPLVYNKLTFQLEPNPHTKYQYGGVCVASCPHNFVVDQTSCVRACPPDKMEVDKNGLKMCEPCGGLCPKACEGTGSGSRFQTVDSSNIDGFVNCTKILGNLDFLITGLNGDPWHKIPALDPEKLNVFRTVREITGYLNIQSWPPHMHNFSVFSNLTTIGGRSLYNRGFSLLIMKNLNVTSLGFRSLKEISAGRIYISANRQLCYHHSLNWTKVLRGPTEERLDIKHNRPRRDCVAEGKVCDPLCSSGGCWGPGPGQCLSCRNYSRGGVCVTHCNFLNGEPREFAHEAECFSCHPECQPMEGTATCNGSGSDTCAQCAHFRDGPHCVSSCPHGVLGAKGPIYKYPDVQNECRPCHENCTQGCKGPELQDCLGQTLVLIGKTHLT
human HER3 receptor on cells, sequence (P21860 20-1342): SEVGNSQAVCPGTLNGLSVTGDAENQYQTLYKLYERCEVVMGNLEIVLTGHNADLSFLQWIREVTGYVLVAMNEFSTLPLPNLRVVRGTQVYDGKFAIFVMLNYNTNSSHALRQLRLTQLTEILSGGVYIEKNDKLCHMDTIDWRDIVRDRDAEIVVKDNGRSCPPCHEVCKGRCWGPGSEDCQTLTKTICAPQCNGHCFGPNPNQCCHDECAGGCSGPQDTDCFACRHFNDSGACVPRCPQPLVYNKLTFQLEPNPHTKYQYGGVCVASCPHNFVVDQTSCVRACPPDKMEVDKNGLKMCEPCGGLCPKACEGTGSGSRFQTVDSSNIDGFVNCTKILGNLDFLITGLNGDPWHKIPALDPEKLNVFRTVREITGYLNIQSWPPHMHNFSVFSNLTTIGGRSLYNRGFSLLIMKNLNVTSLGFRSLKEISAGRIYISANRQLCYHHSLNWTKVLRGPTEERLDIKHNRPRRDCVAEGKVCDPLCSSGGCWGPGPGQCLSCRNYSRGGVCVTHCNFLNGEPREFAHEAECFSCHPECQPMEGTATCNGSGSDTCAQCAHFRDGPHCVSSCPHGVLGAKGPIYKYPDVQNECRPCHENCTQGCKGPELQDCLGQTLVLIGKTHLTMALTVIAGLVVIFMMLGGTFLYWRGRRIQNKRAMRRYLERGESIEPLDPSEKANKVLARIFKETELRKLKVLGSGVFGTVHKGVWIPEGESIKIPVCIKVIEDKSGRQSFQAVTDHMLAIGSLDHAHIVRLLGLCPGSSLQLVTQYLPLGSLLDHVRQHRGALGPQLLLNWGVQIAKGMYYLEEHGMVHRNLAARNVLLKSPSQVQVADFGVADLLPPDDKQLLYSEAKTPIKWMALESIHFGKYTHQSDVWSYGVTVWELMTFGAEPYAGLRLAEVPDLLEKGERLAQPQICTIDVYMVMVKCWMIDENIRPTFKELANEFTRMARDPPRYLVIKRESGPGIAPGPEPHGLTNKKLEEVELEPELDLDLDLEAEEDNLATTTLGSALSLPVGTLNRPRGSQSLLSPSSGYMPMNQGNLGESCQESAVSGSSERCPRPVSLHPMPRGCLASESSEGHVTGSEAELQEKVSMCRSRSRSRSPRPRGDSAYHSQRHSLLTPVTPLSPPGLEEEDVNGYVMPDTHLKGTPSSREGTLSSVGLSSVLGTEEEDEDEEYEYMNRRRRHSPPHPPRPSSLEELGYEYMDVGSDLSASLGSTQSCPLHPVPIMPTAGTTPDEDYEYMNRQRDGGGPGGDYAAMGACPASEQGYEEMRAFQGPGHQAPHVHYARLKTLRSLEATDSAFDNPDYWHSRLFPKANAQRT
T2 sequence (Q61526 20-641): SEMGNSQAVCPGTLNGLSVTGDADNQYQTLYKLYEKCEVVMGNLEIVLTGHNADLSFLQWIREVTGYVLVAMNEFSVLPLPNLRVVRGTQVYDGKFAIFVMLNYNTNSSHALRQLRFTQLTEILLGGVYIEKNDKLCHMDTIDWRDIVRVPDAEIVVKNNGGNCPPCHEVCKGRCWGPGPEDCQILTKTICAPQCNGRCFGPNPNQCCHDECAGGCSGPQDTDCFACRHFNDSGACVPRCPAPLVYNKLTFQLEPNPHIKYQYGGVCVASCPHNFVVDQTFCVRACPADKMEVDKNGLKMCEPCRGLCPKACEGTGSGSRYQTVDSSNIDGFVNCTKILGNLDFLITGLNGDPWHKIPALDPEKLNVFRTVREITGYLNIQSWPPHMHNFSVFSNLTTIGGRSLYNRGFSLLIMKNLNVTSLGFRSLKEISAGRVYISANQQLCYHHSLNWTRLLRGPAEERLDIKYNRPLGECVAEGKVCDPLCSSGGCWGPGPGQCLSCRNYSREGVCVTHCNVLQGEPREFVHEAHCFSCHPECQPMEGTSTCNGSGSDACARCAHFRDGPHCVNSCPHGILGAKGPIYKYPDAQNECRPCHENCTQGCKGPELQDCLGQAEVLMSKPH

B1: Chi46 (antibody, V domains shown)
VH: EEQLVESGGGLVQPEGSLTLTCTASGFSFSASYYIYWVRQAPGKGLEGIAYITGDDDKRTYYANWAKGRFTISKTSTTVTLQMTSLTAADTATYFCTRNLPDELWGPGTLVTVSS
VL: QAVVTQTPSSVSAAVGGTVTISCQSSESVYSYKNLAWYQQKPGQPPRLLIWQASRLSSGVSSRFSGSGSGTQFTLTISGVQCDDAATYYCQGTYYSSAWDFVFGGGTEVMVE
notes: also called parental rabbit/human Fc chimera of Rab46
What is called EC50 is the midpoint of the concentration-response curve. Read a high EC50 as lower potency in that assay. The Kd is the equilibrium constant for the complex coming apart. Broadly, the koff is a measure of how fast the partners let go of each other. Read a low koff as slow dissociation. The term kon denotes the rate constant with which the complex forms. Read a high kon as faster complex formation. Take B1: the “pHER3 inhibition (IC50, µg/ml)” value in assay [1] turned out to be 0.033 µg/ml. For the same molecule, in assay [2], the EC50 was found to be 2.7 ng/mL. For the same molecule, in the assay with Mouse HER3 ECD, the midpoint of the response, the EC50, lay at 5.9 ng/mL. In assay [3], this molecule registered a Kd of 3.32 nM, a koff of 0.000458 s⁻¹ and a kon of 138000 M⁻¹ s⁻¹.
